Experimental data as given in US20110081661A1, “Modified photoproteins with increased affinity for calcium and enhanced bioluminescence and uses thereof” (Millipore Corporation, priority 2009, published 2011).
Like-named read-outs stand apart in the source and are kept apart here.

T1: EP1 Receptor (Homo sapiens, UniProt P34995)
T1 construct: host or cells: HEK293T
T1 sequence (P34995 1-402): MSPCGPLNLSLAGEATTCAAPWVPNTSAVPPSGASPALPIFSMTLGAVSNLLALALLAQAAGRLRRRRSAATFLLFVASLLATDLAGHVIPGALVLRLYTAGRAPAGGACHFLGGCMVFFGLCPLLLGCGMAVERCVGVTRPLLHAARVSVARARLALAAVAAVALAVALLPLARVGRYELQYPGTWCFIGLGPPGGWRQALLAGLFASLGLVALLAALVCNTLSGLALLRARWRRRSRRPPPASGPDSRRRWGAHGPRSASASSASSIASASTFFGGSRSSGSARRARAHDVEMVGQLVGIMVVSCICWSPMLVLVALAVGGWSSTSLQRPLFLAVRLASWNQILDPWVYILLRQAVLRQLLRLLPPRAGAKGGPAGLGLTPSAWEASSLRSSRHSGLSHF

T2: GIP Receptor (Homo sapiens, UniProt P48546)
T2 construct: host or cells: HEK293T
T2 sequence (P48546 22-466): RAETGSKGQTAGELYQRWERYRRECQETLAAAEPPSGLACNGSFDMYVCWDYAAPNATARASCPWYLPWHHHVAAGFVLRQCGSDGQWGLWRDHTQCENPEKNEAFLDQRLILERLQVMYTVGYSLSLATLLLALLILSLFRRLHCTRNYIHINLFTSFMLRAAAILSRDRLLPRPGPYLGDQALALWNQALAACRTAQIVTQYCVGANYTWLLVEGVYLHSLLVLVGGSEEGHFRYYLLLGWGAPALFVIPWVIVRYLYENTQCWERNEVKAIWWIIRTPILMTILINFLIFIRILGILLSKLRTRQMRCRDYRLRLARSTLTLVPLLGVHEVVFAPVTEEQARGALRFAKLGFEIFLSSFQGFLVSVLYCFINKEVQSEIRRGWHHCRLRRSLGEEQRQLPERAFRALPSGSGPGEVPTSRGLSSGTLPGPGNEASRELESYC


Columns and labels:
EP1 Receptor [1] = biological target: T1, EP1 Receptor; type: cell-based; settings: read-out: EP1 Receptor EC50 for PGE2
Experimental: The cells were subsequently thawed and either directly placed into FreeStyle media (INVITROGEN) containing 5 μM coelenterazine (Thaw/Assay), or plated in a flask overnight in growth media consisting of DMEM/F12 containing 10% fetal bovine serum, non-essential amino acids, and penicillin/streptomycin prior to loading with coelenterazine (Thaw/ON Recovery). After loading with coelenterazine for 3-4 h, the cells were centrifuged and resuspended in HBSS with calcium and magnesium.
Thaw/Assay indicates dose response of cells that were thawed and directly loaded with coelenterazine prior to assay, and Thaw/ON Recovery indicates dose response of cells allowed to recover in growth media overnight prior to loading and assay. […] The EC50 values for activation of each receptor by its ligand for each cell treatment method were determined as described above for FIG. 5 for cytosolic clytin K168D photoprotein transfected into HEK293T cells with cotransfected GIP Receptor and G protein.

EP1 Receptor [2] = biological target: T1, EP1 Receptor; assay: Fluorescent calcium assay, stable cell line, EP1 Receptor; type: cell-based; settings: read-out: EP1 Receptor EC50 for PGE2; Fluorescent Ca^2+ assay, cell line stably expressing the receptor
H1 histamine receptor [3] = biological target: T3, H1 histamine receptor (Homo sapiens, UniProt P35367); assay: GPCR-mediated versus total bioluminescence in U-2OS cells (FIG. 4); type: cell-based; settings: 10 μM histamine vs Triton X-100 with 1 mM calcium
T3 construct: expressed in transfected cells; host or cells: U-2OS
T3 sequence (P35367 whole entry): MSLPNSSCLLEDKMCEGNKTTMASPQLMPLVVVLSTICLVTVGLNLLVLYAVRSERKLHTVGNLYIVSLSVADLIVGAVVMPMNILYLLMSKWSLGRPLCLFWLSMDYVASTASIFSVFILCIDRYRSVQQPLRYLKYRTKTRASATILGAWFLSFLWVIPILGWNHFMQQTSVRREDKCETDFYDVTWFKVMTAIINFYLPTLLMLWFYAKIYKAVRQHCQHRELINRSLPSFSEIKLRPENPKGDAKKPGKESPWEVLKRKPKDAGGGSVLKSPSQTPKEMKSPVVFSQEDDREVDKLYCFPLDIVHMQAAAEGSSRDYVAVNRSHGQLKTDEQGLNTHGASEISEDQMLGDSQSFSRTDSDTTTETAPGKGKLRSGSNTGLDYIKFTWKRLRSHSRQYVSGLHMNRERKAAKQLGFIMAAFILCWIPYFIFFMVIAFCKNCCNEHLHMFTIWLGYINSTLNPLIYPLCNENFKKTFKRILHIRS
Experimental: In another experiment, the ability of the various photoproteins to detect calcium flux in live cells was assessed by adding varying concentrations of histamine to cells in order to activate the H1 histamine receptor followed by measurement of bioluminescence of the various photoproteins. U-2OS cells were transfected with a cDNA encoding H1 histamine receptor along with a cDNA encoding either a wild-type photoprotein or a modified photoprotein according to the invention, as described above in Example 2, except that Lipofectamine-2000 (INVITROGEN) was used as the transfection reagent. On the second day, the cells were trypsinized, counted, and plated in a white tissue-culture treated 96-well plate (COSTAR) at a density of about 50,000 cells/well in growth media consisting of DMEM containing 10% fetal bovine serum, non-essential amino acids, HEPES and penicillin/streptomycin. On the third day, the medium was removed and cells were washed once with 200 μl/well of HBSS/HEPES (containing Ca^2+). Cells were subsequently incubated with 5 μM coelenterazine in HBSS/HEPES (containing Ca^2+) in a volume of 200 μl/well, for 3-4 hours at room temperature in the dark. After incubation, the coelenterazine solution was removed and cells were washed and replaced with HBSS/HEPES buffer containing both Ca^2+ and Mg^2+. 50 μl/well of histamine at varying concentrations in HBSS/HEPES containing both Ca^2+ and Mg^2+ was added to the cells and total bioluminescence was measured at 20 seconds using a Victor2 luminometer.
In an exemplary experiment, U-2OS cells were transfected, plated and loaded with coelenterazine as described in Example 3. Luminescence induced by buffer alone or by 10 μM histamine was measured also as described in Example 3. Additionally, luminescence induced by addition of Triton X-100 in the presence of 1 mM calcium was also determined in order to assess the total amount of active photoprotein detectable using saturating calcium concentrations in cells.

[4] = Calcium EC50 of mitochondrially targeted photoproteins in HEK293T cells without cotransfected GPCR or G protein (Table II); type: cell-based; settings: no cotransfected GPCR or G protein
Excerpt: (§1) In an exemplary experiment, HEK293T cells (ATCC-CRL-11268) were transiently co-transfected with 2 μgs of each of pcDNA3.1-H1 (containing the cDNA encoding the H1 histamine receptor) and pcDNA3.1 containing the cDNAs encoding wild type mitochondrial Clytin (referred to as mt-Clytin), modified mitochondrial Clytin having a lysine to aspartic acid mutation at position 168 (referred to as mt-Clytin K168D), modified mitochondrial Clytin having a lysine to glutamic acid mutation at position 168 (referred to as mt-Clytin K168E), wild-type mitochondrial Obelin (referred to as mt-Obelin) or wild type mitochondrial Aequorin (referred to as mt-Aequorin) using the Targefect-293 reagent (TARGETING SYSTEMS). 48 hours later, the cells were detached using Accutase (MILLIPORE), centrifuged, and resuspended in […] in FreeStyle293 media (INVITROGEN), for incubation for 3-4 hours at room temperature in the dark. After incubation, the cells were centrifuged and resuspended in HBSS/HEPES buffer without Ca^2+ at a density of 1×10^6 cells/ml. Next, 100 μl/well of cell suspension for each transfection were added by the use of a Victor2 luminometer plate reader (WALLAC, […]), to a 96-well plate containing 50 μL/well Triton X-100 in MOPS/KCl buffer containing 10 mM EGTA and a series of Ca^2+ concentrations, such that free calcium concentrations ranged from 17 nM to 39.6 μM, followed by for measurement of total bioluminescence at 20 seconds.
(§2) Signal to background ratio was calculated as the signal induced by maximal GIP (1 μM) divided by the signal induced by buffer alone. The EC50 value for calcium was determined as described above for FIG. 2 for mitochondrially targeted photoproteins transfected into HEK293T cells in the absence of a cotransfected GPCR or G protein. Affinity for calcium was correlated with the properties of the amino acid side chain at residue 168 of Clytin.

GIP Receptor = biological target: T2, GIP Receptor; assay: GIP receptor-mediated bioluminescence in HEK293T cells with chimeric promiscuous G protein (FIG. 5, Table II); type: cell-based; settings: for % GPCR/total: signal induced by maximal GIP (1 μM) as percentage of signal induced by Triton X-100 with 1 mM Ca^2+; for Signal: background with GIP: signal induced by maximal GIP (1 μM) divided by signal induced by buffer alone
Experimental: However, coexpression of GIP receptor with a chimeric G protein containing sequences from Gαs and Gαq enable the GIP receptor to stimulate calcium flux.
The results of the dose response curve to varying concentrations of GIP with a subset of the photoproteins are summarized in FIG. 5.
as §2
The EC50 value for receptor-mediated calcium flux induced by the ligand was determined by plotting luminescence (Y-axis) versus ligand concentration applied to the cells (X-axis), and applying a sigmoidal dose-response curve-fitting algorithm (GraphPad Prism). GPCR-mediated signals of the various modified forms of Clytin having an amino acid substitution at position 168 were also related to the nature of the side chain. In addition, the subcellular location of the photoproteins (cytosolic vs mitochondrial) appeared to have an effect on GPCR-mediated signals. […] All of the other mitochondrially targeted mutants except for Clytin K168R and wild-type Clytin yielded results that were in the range of those observed for wt-Aequorin.

[5] = Calcium affinity of mitochondrial photoproteins, transient co-transfection with H1 histamine receptor in HEK293T cells (FIG. 2); type: cell-based; settings: HEK293T cells co-transfected with H1 histamine receptor; Triton X-100, free calcium 17 nM to 39.6 μM; total bioluminescence at 20 seconds; read-out: EC50 value (affinity for Ca^2+)
Excerpt: (§3) Following the generation of modified forms of Clytin, the various variants were compared with wt-Aequorin for their affinity for intracellular calcium in transient transfection assays using co-transfection with the H1 histamine receptor (Genbank Accession No. NM_000861, obtained by PCR using H1-specific primers from a human brain cDNA library, forward primer 5′-[…] ATTCCTC-3′ (SEQ ID NO:60), reverse primer 5′-[…] AATTCTC-3′ (SEQ ID NO:61).
as §1

TRPA1 cation channel = biological target: T4, TRPA1 cation channel (Homo sapiens, UniProt O75762); assay: Ion channel-mediated bioluminescence in HEK293 cells stably expressing TRPA1, induced by AITC; type: cell-based; settings: HEK293 cells stably expressing TRPA1, AITC 10^−6 to 10^−3.5 M
T4 construct: host or cells: HEK293
T4 sequence (O75762 whole entry): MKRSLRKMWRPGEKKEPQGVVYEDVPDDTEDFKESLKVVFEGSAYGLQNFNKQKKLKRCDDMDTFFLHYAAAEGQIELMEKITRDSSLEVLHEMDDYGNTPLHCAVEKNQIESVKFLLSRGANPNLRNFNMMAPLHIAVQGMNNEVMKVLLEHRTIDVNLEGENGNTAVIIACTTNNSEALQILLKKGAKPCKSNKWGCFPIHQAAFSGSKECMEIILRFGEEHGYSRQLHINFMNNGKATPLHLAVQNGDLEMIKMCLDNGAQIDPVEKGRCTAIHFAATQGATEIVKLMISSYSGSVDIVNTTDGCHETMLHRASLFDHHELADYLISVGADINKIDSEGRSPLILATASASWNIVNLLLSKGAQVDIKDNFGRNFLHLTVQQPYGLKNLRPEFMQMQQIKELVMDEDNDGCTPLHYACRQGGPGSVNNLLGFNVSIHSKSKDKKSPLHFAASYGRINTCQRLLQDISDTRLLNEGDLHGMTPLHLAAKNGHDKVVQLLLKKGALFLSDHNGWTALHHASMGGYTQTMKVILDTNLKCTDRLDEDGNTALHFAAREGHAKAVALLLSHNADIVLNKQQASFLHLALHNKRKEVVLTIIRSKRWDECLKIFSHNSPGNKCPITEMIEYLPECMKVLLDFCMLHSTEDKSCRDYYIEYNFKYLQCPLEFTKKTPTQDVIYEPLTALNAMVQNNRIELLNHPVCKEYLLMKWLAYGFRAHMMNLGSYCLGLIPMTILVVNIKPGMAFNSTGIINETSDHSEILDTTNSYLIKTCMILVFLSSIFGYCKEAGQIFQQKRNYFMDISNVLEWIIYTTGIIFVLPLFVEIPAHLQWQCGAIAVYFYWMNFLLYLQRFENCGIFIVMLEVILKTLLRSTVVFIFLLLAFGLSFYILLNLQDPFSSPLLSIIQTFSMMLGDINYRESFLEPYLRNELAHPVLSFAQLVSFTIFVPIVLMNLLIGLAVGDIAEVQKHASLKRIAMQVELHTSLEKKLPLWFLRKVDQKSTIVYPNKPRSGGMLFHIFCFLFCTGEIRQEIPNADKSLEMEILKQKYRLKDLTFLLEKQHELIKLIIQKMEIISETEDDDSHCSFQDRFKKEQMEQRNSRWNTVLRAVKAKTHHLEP

H1 histamine receptor [6] = biological target: T3, H1 histamine receptor; assay: H1 histamine receptor-mediated bioluminescence in U-2OS cells (FIG. 3); type: cell-based; settings: total bioluminescence at 20 seconds
Excerpt: as §3
In another experiment, the ability of the various photoproteins to detect calcium flux in live cells was assessed by adding varying concentrations of histamine to cells in order to activate the H1 histamine receptor followed by measurement of bioluminescence of the various photoproteins. […] On the second day, the cells were trypsinized, counted, and plated in a white tissue-culture treated 96-well plate (COSTAR) at a density of about 50,000 cells/well in growth media consisting of DMEM containing 10% fetal bovine serum, non-essential amino acids, HEPES and penicillin/streptomycin. […] 50 μl/well of histamine at varying concentrations in HBSS/HEPES containing both Ca^2+ and Mg^2+ was added to the cells and total bioluminescence was measured at 20 seconds using a Victor2 luminometer.

[7] = background statement; cited from earlier work
[8] = HEK293T cells, GIP Receptor + promiscuous G protein
[9] = HEK293T cells, GIP Receptor + promiscuous G protein, luminescence vs GIP concentration
[10] = listed as cytosolic Clytin K168D

Row | Molecule | EC50 (EP1 Receptor [1]; Luminescent Assay, Thaw/Assay) | EC50 (EP1 Receptor [1]; Luminescent assay, Thaw/ON Recovery) | EC50 (EP1 Receptor [2]) | GPCR-mediated signal as % of the total signal (H1 histamine receptor [3]) | EC50 [4] | Max signal with GIP (RLU × 10^−5) (GIP Receptor; [8]) | EC50 (GIP Receptor; [9]) | % GPCR/total (GIP Receptor) | Signal: background with GIP (GIP Receptor) | EC50 [5] | EC50 (AITC dose response) (TRPA1 cation channel) | signal (AITC-induced bioluminescence) (TRPA1 cation channel) | luminescence induced by histamine (H1 histamine receptor [6]) | signal intensities, GIP dose response (FIG. 5) (GIP Receptor; HEK293T cells, GIP 10^−11 to 10^−6 M) | Max signal with GIP (RLU × 10^−5) (GIP Receptor; HEK293T cells, GIP Receptor + promiscuous G protein, listed as cytosolic Clytin K168D) | EC50 for GIP (nM) (GIP Receptor; [9]) | % GPCR/total (GIP Receptor; [10]) | Signal: background with GIP (GIP Receptor; [10]) | affinity for calcium [7]
1 | CCCCC[C@H](O)/C=C/[C@H]1[C@H](O)CC(=O)[C@@H]1C/C=C\CCCC(=O)O [PGE2, prostaglandin E2] | 6 nM | 10 nM | 3 nM | – | – | – | – | – | – | – | – | – | – | – | – | – | – | – | –
2 | Mt-clytin wt: Mitochondrial Wild-type Clytin (mt-Clytin), SEQ ID NO:5, with COX8 mitochondrial leader sequence (protein, listed as Clytia gregaria) MSVLTPLLLRGLTGSARRLPVPRAKIHSLPPEGKLRPNFDNPKWVNRHKFMFNFLDINGDGKITLDEIVSKASDDICAKLGATPEQTKRHQDAVEAFFKKIGMDYGKEVEFPAFVDGWKELANYDLKLWSQNKKSLIRDWGEAVFDIFDKDGSGSISLDEWKAYGRISGICSSDEDAEKTFKHCDLDNSGKLDVDEMTRQHLGFWYTLDPNADGLYGNFVP | – | – | – | about 30% | 545 nM | 3.14 RLU × 10^−5 | 12.9 nM | 6.8% | 146.5 | 1350 nM | – | – | – | – | – | – | – | – | –
3 | Cyto-clytin K168D: K168D modified Clytin amino acid sequence, SEQ ID NO:9; cytosolic (protein) MADTASKYAVKLRPNFDNPKWVNRHKFMFNFLDINGDGKITLDEIVSKASDDICAKLGATPEQTKRHQDAVEAFFKKIGMDYGKEVEFPAFVDGWKELANYDLKLWSQNKKSLIRDWGEAVFDIFDKDGSGSISLDEWKAYGRISGICSSDEDAEKTFKHCDLDNSGDLDVDEMTRQHLGFWYTLDPNADGLYGNFVP | – | – | – | ~100% | 160 nM | 8.76 RLU × 10^−5 | 4.01 nM | 55.6% | 74.3 | – | lower EC50 than cytosolic wild-type Clytin | higher signal than cytosolic and mitochondrial Aequorin | much higher luminescence than the other forms of Clytin and Aequorin | significantly higher signal intensities than any of the wild-type photoproteins | highest maximal signal | lowest EC50 | highest % GPCR/total | highest signal to background ratio | –
4 | Cyto-aequorin: Wild-type Aequorin (wt-Aequorin) amino acid sequence, SEQ ID NO:2; cytosolic (protein, listed as Aequorea victoria) MTSKQYSVKLTSDFDNPRWIGRHKHMFNFLDVNHNGKISLDEMVYKASDIVINNLGATPEQAKRHKDAVEAFFGGAGMKYGVETDWPAYIEGWKKLATDELEKYAKNEPTLIRIWGDALFDIVDKDQNGAITLDEWKAYTKAAGIIQSSEDCEETFRVCDIDESGQLDVDEMTRQHLGFWYTMDPACEKLYGGAVP | – | – | – | about 30% | 235 nM | 1.21 RLU × 10^−5 | 6.67 nM | 13.0% | 29.4 | – | – | – | – | – | – | – | – | – | around 7 μM
